{
  "source": "patent US20200109190A1",
  "about": "(AstraZeneca / MedImmune, published 2020)",
  "binders": {"B1": {"name": "SAN481-YTE (antibody)", "heavy": "QLQLVESGGGAVQPGRSLKLSCAASGFNFSTYAMHWVRQAPGRGLEWVAVTSFDGSNEYYIDSVKGRFTISRDNTKNTLYLQMTGLRVEDTALYFCARDEYTGGWYSVGYWGQGTLVTVSSASTKGPSVFPLAPSSKSTSGGTAALGCLVKDYFPEPVTVSWNSGALTSGVHTFPAVLQSSGLYSLSSVVTVPSSSLGTQTYICNVNHKPSNTKVDKRVEPKSCDKTHTCPPCPAPELLGGPSVFLFPPKPKDTLYITREPEVTCVVVDVSHEDPEVKFNWYVDGVEVHNAKTKPREEQYNSTYRVVSVLTVLHQDWLNGKEYKCKVSNKALPAPIEKTISKAKGQPREPQVYTLPPSREEMTKNQVSLTCLVKGFYPSDIAVEWESNGQPENNYKTTPPVLDSDGSFFLYSKLTVDKSRWQQGNVFSCSVMHEALHNHYTQKSLSLSPGK", "light": "not shown", "notes": "also called QD1"}, "B2": {"name": "SAN481-T-YTE (antibody, V domains shown)", "VH": "QLQLVESGGGAVQPGRSLKLSCAASGFTFSTYAMHWVRQAPGRGLEWVAVTSFDGSNEYYIDSVKGRFTISRDNTKNTLYLQMTGLRVEDTALYFCARDEYTGGWYSVGYWGQGTLVTVSS", "VL": "QSVLTQPPSASGTPGQRVTISCSGNSYNIGSNSVYWYQQFPGTAPKLLISRSIQRPSGVPDRFSGSKSVTSASLAISGLRSEDEADYYCAAWDDSLRAWVFGGGTKLTVLG", "notes": "also called QD3; SAN481VH28T-YTE"}},
  "key": {"LukSF [1]": {"target": "T1, LukSF (Staphylococcus aureus)", "test": "cell-based or functional assay"}, "HlgAB [2]": {"target": "T2, HlgAB (Staphylococcus aureus, UniProt P0A074 30-309)", "T2 sequence 1": "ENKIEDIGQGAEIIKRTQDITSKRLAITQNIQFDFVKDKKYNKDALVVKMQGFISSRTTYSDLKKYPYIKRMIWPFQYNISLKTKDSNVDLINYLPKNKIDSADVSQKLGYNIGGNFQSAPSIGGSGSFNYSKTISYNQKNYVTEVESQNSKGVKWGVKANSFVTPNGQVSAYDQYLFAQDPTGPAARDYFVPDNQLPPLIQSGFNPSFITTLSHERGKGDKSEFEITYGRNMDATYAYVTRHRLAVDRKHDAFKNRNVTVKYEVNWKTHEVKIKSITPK", "T2 sequence 2": "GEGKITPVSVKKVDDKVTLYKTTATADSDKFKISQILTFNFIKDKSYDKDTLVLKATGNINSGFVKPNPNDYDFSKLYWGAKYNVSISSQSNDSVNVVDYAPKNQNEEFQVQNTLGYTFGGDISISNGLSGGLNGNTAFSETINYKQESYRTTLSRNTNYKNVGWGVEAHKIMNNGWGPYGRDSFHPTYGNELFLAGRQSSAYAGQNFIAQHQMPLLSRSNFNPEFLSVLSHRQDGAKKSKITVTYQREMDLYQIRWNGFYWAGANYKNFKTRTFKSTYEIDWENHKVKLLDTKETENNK", "test": "cell-based or functional assay"}, "S. aureus LukF [3]": {"target": "T3, S. aureus LukF (Staphylococcus aureus)"}, "S. aureus HlgB": {"target": "T4, S. aureus HlgB (Staphylococcus aureus, UniProt P0A075 27-325)", "T4 sequence": "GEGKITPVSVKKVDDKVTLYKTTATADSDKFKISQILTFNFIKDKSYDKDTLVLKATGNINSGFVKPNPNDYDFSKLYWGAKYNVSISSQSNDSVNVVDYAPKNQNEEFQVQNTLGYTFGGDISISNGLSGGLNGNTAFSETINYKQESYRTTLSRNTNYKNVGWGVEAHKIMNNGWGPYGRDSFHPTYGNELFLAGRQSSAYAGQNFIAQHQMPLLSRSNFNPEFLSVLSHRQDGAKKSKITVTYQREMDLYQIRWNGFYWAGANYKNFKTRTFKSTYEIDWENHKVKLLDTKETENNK"}, "S. aureus LukD": {"target": "T5, S. aureus LukD (Staphylococcus aureus, UniProt Q2FXB1 27-327)", "T5 sequence": "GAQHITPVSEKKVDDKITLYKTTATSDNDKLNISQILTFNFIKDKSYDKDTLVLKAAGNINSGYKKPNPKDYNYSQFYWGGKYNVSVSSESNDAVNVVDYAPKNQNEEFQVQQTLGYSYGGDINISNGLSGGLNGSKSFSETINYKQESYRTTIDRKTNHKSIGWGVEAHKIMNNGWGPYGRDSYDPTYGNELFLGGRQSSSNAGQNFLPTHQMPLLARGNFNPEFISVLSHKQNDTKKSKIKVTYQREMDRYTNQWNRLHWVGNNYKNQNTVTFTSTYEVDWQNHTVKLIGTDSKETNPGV"}, "LukSF [4]": {"target": "T1, LukSF", "test": "cell-based or functional assay", "remark": "listed apart in the source"}, "HlgAB [5]": {"target": "T2, HlgAB", "test": "cell-based or functional assay", "remark": "listed apart in the source"}, "S. aureus LukF [6]": {"target": "T3, S. aureus LukF", "test": "method not stated at Table 8; BLI (Octet) is described in Example 4"}, "LukSF [7]": {"target": "T1, LukSF", "test": "cell-based or functional assay", "remark": "listed apart in the source"}, "HlgAB [8]": {"target": "T2, HlgAB", "test": "cell-based or functional assay", "remark": "listed apart in the source"}},
  "note": "Several values for one entry are separate records, joined by “and”; a condition that tells them apart may be missing. Equal values may be shown once. Read-outs that look alike come from different tables or passages of the source.",
  "data": [
    {"binder": "B1", "values": [
      {"measurement": "IC50 Fold loss vs. WT (LukSF)", "setting": "LukSF [1]", "result": 0.938, "unit": "fold"},
      {"measurement": "IC50 for LukSF", "setting": "LukSF [1]", "result": 0.15, "unit": "µg/mL"},
      {"measurement": "IC50 Fold loss vs. WT (HIgAB)", "setting": "HlgAB [2]", "result": 0.95, "unit": "fold"},
      {"measurement": "IC50 for HIgAB", "setting": "HlgAB [2]", "result": 0.54, "unit": "µg/mL"},
      {"measurement": "Kd", "setting": "S. aureus LukF [3]", "result": "0.232 nM and 0.226 nM"},
      {"measurement": "koff", "setting": "S. aureus LukF [3]", "result": "6.55e-05 s⁻¹ and 6.47e-05 s⁻¹"},
      {"measurement": "kon", "setting": "S. aureus LukF [3]", "result": "283000 M⁻¹ s⁻¹ and 287000 M⁻¹ s⁻¹"},
      {"measurement": "Kd", "setting": "S. aureus HlgB", "result": "< 0.001", "unit": "nM"},
      {"measurement": "koff", "setting": "S. aureus HlgB", "result": "< 1e-07", "unit": "s⁻¹"},
      {"measurement": "kon", "setting": "S. aureus HlgB", "result": "240000 M⁻¹ s⁻¹ and 265000 M⁻¹ s⁻¹"},
      {"measurement": "Kd", "setting": "S. aureus LukD", "result": "< 0.001", "unit": "nM"},
      {"measurement": "koff", "setting": "S. aureus LukD", "result": "< 1e-07", "unit": "s⁻¹"},
      {"measurement": "kon", "setting": "S. aureus LukD", "result": "277000 M⁻¹ s⁻¹ and 294000 M⁻¹ s⁻¹"},
      {"measurement": "IC50 (LukSF) HL-60; Dark sample", "setting": "LukSF [4]", "result": 0.209, "unit": "µg/mL"},
      {"measurement": "IC50 (LukSF) HL-60; Light sample", "setting": "LukSF [4]", "result": 0.233, "unit": "µg/mL"},
      {"measurement": "IC50 (HIgAB) HL-60; Dark sample", "setting": "HlgAB [5]", "result": 0.704, "unit": "µg/mL"},
      {"measurement": "IC50 (HIgAB) HL-60; Light sample", "setting": "HlgAB [5]", "result": 0.821, "unit": "µg/mL"},
      {"measurement": "Kd", "setting": "S. aureus LukF [6]", "result": 0.0148, "unit": "nM"},
      {"measurement": "IC50 (LukSF) HL-60", "setting": "LukSF [7]", "result": 0.15, "unit": "µg/mL"},
      {"measurement": "IC50 (HIgAB) HL-60", "setting": "HlgAB [8]", "result": 0.54, "unit": "µg/mL"}
    ]},
    {"binder": "B2", "values": [
      {"measurement": "IC50 Fold loss vs. WT (LukSF)", "setting": "LukSF [1]", "result": 1.04, "unit": "fold"},
      {"measurement": "IC50 for LukSF", "setting": "LukSF [1]", "result": 0.166, "unit": "µg/mL"},
      {"measurement": "IC50 Fold loss vs. WT (HIgAB)", "setting": "HlgAB [2]", "result": 0.948, "unit": "fold"},
      {"measurement": "IC50 for HIgAB", "setting": "HlgAB [2]", "result": 0.539, "unit": "µg/mL"},
      {"measurement": "IC50 (LukSF) HL-60; Dark sample", "setting": "LukSF [4]", "result": 0.193, "unit": "µg/mL"},
      {"measurement": "IC50 (LukSF) HL-60; Light sample", "setting": "LukSF [4]", "result": 0.205, "unit": "µg/mL"},
      {"measurement": "IC50 (HIgAB) HL-60; Dark sample", "setting": "HlgAB [5]", "result": 0.707, "unit": "µg/mL"},
      {"measurement": "IC50 (HIgAB) HL-60; Light sample", "setting": "HlgAB [5]", "result": 0.624, "unit": "µg/mL"},
      {"measurement": "Kd", "setting": "S. aureus LukF [6]", "result": "< 0.001", "unit": "nM"},
      {"measurement": "IC50 (LukSF) HL-60", "setting": "LukSF [7]", "result": 0.17, "unit": "µg/mL"},
      {"measurement": "IC50 (HIgAB) HL-60", "setting": "HlgAB [8]", "result": 0.54, "unit": "µg/mL"}
    ]}
  ]
}
